Measured values: publication doi:10.1101/2025.08.28.672867, “Catalytic pocket of Clr4 (Suv39h) methyltransferase serves as a substrate receptor for Cullin 4-dependent histone H3 ubiquitination” (bioRxiv, 2025)
Values belong to the binder of their own block, whether it stands above or below them.

Tests used:
6×His-MBP-Raf1 = target: T1, 6×His-MBP-Raf1 (S. pombe, UniProt O74910 1-638); assay: pull-down; MBP-Raf1 held on amylose resin and incubated with Clr4 FL or fragments (legend: 'MBP pulldown assays of CLRC subunits'); 1:1 molar ratio, 30 min on ice, resin 1 h at 4 °C; wash 20 mM HEPES pH 7.5, 150 mM NaCl, 0.02% Triton X-100; SDS-PAGE; conditions: both partners purified
T1 construct: Raf1 (Rik1-associated factor 1, DDB2 homolog), S. pombe; Expressed from one bacmid with Raf2, Rik1 and Cul4 and purified with them; A TEV site lies between MBP and Raf1; also called Raf1-MBP; Raf1 (DDB2 homolog); source: Hi5 insect cells (baculovirus), purified (Ni-NTA, amylose, SEC) together with Raf2, Rik1 and Cul4; not shown: His6, N-terminal, kept; MBP, N-terminal, kept
T1 sequence (looked up): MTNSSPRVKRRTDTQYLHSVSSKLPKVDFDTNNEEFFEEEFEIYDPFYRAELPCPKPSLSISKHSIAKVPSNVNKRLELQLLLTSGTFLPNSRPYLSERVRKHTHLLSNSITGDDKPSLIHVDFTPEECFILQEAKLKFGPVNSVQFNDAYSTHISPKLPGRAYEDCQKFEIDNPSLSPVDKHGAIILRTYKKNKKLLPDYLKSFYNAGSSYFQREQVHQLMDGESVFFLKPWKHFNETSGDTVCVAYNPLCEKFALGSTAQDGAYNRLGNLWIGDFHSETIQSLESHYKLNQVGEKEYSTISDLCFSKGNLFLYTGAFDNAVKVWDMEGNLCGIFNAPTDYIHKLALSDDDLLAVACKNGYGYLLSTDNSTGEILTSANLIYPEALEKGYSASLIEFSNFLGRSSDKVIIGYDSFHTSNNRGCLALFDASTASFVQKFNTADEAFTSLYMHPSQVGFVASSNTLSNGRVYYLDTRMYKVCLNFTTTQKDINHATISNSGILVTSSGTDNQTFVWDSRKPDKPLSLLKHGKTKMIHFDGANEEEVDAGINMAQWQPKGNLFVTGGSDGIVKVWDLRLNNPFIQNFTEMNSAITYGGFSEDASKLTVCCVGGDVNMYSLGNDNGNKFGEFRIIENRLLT

[1] = target: T2, CLRC complex lacking Clr4 (CLRC^-Clr4): 6×His-MBP-Raf1, Raf2, Rik1 and Cul4 (S. pombe, UniProt O74910 1-638; O74560 1-636; Q10426 1-1040; O14122 1-734); assay: as above; conditions: both partners purified
T2 construct: Raf1 (DDB2 homolog), S. pombe; as the chain of m2; Raf2, S. pombe; as the chain of m3; Rik1 (DDB1 homolog), S. pombe; as the chain of m4; Cullin 4, S. pombe; as the chain of m5; also called four-subunit CLRC complex; CLRC minus Clr4; source: Hi5 insect cells (baculovirus, single bacmid), purified (Ni-NTA, amylose, SEC on Superose 6 Increase); not shown: His6, N-terminal, kept; MBP, N-terminal, …
T2 sequence (O74560 whole entry, chain 2 of 3): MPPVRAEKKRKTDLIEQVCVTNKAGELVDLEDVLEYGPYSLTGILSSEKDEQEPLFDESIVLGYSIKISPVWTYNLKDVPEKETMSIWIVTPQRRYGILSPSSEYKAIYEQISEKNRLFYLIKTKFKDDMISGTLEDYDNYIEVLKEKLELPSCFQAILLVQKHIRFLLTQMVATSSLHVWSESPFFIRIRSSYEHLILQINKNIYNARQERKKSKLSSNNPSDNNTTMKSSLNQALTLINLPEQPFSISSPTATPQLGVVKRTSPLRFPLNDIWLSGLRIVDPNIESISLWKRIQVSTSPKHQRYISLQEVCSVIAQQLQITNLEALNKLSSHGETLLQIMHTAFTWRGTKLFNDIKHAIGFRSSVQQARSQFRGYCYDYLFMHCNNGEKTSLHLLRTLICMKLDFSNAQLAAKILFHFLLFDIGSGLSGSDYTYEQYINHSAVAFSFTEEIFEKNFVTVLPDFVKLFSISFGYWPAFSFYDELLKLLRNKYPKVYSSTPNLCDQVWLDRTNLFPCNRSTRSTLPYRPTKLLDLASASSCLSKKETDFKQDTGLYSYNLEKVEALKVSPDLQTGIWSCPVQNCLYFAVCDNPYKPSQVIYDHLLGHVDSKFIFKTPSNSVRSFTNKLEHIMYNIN
T2 sequence (Q10426 whole entry, chain 3 of 3): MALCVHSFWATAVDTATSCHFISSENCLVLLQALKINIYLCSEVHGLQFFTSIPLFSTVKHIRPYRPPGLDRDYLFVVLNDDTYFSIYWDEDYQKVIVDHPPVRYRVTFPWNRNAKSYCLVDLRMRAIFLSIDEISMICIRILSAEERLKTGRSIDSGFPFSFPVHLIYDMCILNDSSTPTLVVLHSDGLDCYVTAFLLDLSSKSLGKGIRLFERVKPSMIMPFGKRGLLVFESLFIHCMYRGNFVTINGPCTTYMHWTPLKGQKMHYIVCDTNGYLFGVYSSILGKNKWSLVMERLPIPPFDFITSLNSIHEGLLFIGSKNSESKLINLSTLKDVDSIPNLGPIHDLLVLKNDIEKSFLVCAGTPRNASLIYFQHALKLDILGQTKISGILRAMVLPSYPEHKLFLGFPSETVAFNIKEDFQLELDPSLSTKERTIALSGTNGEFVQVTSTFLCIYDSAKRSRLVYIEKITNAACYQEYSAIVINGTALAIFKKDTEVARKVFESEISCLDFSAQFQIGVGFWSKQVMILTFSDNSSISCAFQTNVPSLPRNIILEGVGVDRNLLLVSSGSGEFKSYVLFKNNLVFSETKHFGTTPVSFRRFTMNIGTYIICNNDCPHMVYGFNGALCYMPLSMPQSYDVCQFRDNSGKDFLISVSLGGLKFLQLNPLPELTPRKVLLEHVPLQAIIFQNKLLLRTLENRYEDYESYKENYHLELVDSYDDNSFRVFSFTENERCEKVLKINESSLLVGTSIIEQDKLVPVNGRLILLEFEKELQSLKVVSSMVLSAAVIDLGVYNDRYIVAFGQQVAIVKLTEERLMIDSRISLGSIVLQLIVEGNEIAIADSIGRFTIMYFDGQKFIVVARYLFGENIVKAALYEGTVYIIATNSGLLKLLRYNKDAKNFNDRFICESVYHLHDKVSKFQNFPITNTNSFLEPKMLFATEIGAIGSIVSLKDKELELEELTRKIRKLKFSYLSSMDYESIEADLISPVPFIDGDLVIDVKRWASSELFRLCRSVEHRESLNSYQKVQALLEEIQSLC
T2 sequence (O14122 whole entry, chain 4 of 3): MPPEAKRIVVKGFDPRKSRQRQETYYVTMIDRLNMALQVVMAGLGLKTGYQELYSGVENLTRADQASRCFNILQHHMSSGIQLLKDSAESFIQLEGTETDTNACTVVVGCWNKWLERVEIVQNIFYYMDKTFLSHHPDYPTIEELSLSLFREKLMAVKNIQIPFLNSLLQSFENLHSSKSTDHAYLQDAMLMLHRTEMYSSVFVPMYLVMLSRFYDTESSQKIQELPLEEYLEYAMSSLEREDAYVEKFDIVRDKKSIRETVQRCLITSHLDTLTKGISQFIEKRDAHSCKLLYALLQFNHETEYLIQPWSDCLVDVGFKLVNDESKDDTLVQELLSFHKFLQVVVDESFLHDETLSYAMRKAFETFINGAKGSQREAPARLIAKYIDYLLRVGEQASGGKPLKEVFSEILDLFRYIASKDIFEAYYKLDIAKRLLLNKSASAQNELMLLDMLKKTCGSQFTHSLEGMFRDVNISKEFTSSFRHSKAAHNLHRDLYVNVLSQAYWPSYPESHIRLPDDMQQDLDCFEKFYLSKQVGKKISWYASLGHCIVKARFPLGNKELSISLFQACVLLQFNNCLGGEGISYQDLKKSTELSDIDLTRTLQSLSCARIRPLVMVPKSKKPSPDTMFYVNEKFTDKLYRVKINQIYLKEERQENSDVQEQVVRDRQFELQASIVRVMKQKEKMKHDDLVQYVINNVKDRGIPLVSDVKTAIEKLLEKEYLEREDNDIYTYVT

binding result (6×His-MBP-Raf1): binds
binding result [1]: binds
B1: Clr4N-Set2 (Clr4 chromodomain-hinge fused to the SET domain of S. pombe Set2) (other, UniProt O60016 1-192, looked up)
chain: MSPKQEEYEVERIVDEKLDRNGAVKLYRIRWLNYSSRSDTWEPPENLSGCSAVLAEWKRRKRRLKGSNSDSDSPHHASNPHPNSRQKHQHQTSKSVPRSQRFSRELNVKKENKKVFSSQTTKRQSRKQSTALTTNDTSIILDDSLHTNSKKLGKTRNEVKEESQKRELVSNSIKEATSPKTSSILTKPRNPSLFHHLDSAKDKALTTFEEIQECQYASANIGKPPENEAMICDCRPHWVDGVNVACGHGSNCINRMTSIECTDEDNVCGPSCQNQRFQRHEFAKVDVFLTEKKGFGLRADANLPKDTFVYEYIGEVIPEQKFRKRMRQYDSEGIKHFYFMMLQKGEYIDATKRGSLARFCNHSCRPNCYVDKWMVGDKLRMGIFCKRDIIRGEELTFDYNVDRYGAQAQPCYCGEPCCVGYIGGKTQTEAQSK
notes: Clr4, S. pombe, chromodomain and hinge region, amino acids 1-192 (GST-Clr4 ΔSET); Set2 H3K36 methyltransferase, S. pombe, SET domain, amino acids 90-330, fused to the C-terminus of Clr4 ΔSET; also called GST-Clr4 CD-Hinge-Set2; GST-Clr4N-Set2

binding result (6×His-MBP-Raf1): binds
B2: Clr4 ΔSET (amino acids 1–192) (domain or fragment, S. pombe, UniProt O60016 1-192, looked up)
chain: MSPKQEEYEVERIVDEKLDRNGAVKLYRIRWLNYSSRSDTWEPPENLSGCSAVLAEWKRRKRRLKGSNSDSDSPHHASNPHPNSRQKHQHQTSKSVPRSQRFSRELNVKKENKKVFSSQTTKRQSRKQSTALTTNDTSIILDDSLHTNSKKLGKTRNEVKEESQKRELVSNSIKEATSPKTSSILTKPRNPS
notes: Clr4, S. pombe, chromodomain and hinge region, amino acids 1-192; also called GST-Clr4 ΔSET
